Assay results taken from patent publication US20080274110A1 (published 2008).

Target: T1, β2 microglobulin (human, UniProt P61769 21-119)
T1 construct: The 12 kD band on its own, as probed by Western blotting; also called molecule of approximately 12 KD
Assay: Western blotting with the 2D7 antibody
Text: As a result, a molecule (approximately 12 kD) that precipitates specifically in RPMI8226 and U266 cells was observed (FIG. 3). This molecule was not detected by Western blotting using the 2D7 antibody, but since it is at least reproducibly precipitated by the 2D7 antibody, it was strongly predicted to be the 2D7 antigen itself, or a molecule that co-precipitates with the 2D7 antigen.

- binding result: no binding
B1: 2D7 antibody (antibody, mouse IgG2b, V domains shown)
VH: QVQLQQSGPELVKPGASVKMSCKASGYTFTDYFIHWVKQRPGQGLEWIGWIFPGDDTTDYNEKFRGKTTLTADKSSSTAYILLSSLTSEDSAMYFCVRSDDFDYWGQGTTLTVSS
VL: QIVLTQSPAIMSASPGEKVTITCSASSSVSYMHWFQQKPGTFPKLWIYSTSNLASGVPTRFSGSGSGTSYSLTISRMEAEDAATYYCQQRTSYPPTFGSGTKLEIK
notes: Whole mouse monoclonal antibody purified on Protein A from ascites of the 2D7 hybridoma (University of Tokushima); Primers for mouse IgG2b constant regions were used to clone its variable regions
